Test system: MS2 coat protein
Experiment: apparent KD of MS2 coat protein; designed switch direction (-1 OFF switch, 1 ON switch): -1; higher = weaker reporter binding
Procedure, shortened: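 SNAP-549-labelled MS2 coat protein was titrated, doubling from 0.7 or 1.5 nM to 3 µM, over designed RNA switches transcribed on Illumina chips by stalled E. coli RNA polymerase. Runs were done without input, with 200 uM small-molecule ligand, or with an oligonucleotide input. Apparent KD is the per-design median over clusters of curve-fitted normalised fluorescence.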

[1] = input ligand: microRNA oligo, concentration not stated
[2] = Eterna round: R95, input ligand: microRNA oligo, concentration not stated
[3] = Eterna round: R95, input ligand: FMN 200 uM
[4] = Eterna round: R95, input ligand: none

AGCUGUGGCCGAGGAUAUACACAUGAGGAUCACCCAUGUAGGCGCGGAUACGCGCUAAAAUAAGUGUAGAAGGCGGUCUCAGCA [Eli eng2 - 056] (Eterna round: R96, puzzle: Exclusion NG 2)
apparent KD of MS2 coat protein (input ligand: FMN 200 uM): 20.1 nM | apparent KD of MS2 coat protein [1]: 17.4 nM | apparent KD of MS2 coat protein (input ligand: none): 18.1 nM

ACCAGCAUACGGAGAUCCAACAUGAGGAUCACCCAUGUCUGGAAAGCUUUUUGCUUGUCUUAUCCUCCUCUGUGUGC [Design #2] (Eterna round: R97, puzzle: Sensor, turn-off variant 1)
apparent KD of MS2 coat protein (input ligand: FMN 200 uM): 17.5 nM | apparent KD of MS2 coat protein (input ligand: none): 16.6 nM

AGGUCUCGUGUCAGGAUAUAUUUUCUCUGAGCAAGGUAGAAGGGACAUGAGGAUCACCCAUGUCUGAGGAAAAU [Eternabot (L1) Solution 34] (Eterna round: R97, puzzle: Brourd's mod of Exclusion 4)
apparent KD of MS2 coat protein (input ligand: FMN 200 uM): 24 nM | apparent KD of MS2 coat protein (input ligand: none): 19.1 nM

UAAAAGCGGAAGGAUAUGUGUCUAAAGUCUGUAGCAGAAGGUCCGACAUGAGGAUCACCCAUGUGACCUGGUGC [Biatceis] (puzzle: Exclusion 6)
apparent KD of MS2 coat protein [2]: 10.3 nM

AGUCAAACGGUAGGAUAUCCAUAUCGAGUGACCCUUUCAUAACAUGAGGAUCACCCAUGUCGGUGGGAGAAGGGCCGUAAGGCA [Mat - Exclusion NG 2 - Mod of JL - D70] (Eterna round: R96, puzzle: Exclusion NG 2)
apparent KD of MS2 coat protein (input ligand: FMN 200 uM): 99.6 nM | apparent KD of MS2 coat protein [1]: 43.1 nM | apparent KD of MS2 coat protein (input ligand: none): 52.4 nM

AGGAAUGAAGGAUAUACAUGAGGAUCACCCAUGUAAAAAAAGUCGUUUAUUGUGUCAUGUAGAAGGUCAAGAAG [JR_Exclusion3_Sub002] (puzzle: Exclusion 3)
apparent KD of MS2 coat protein [3]: 29.6 nM | apparent KD of MS2 coat protein [2]: 29.6 nM | apparent KD of MS2 coat protein [4]: 33 nM

CCGCUCCGUGUAGGAUAUCGGUGUACCCUGCGCCGAGAAGGACAUGAGGAUCACCCAUGUAUGUUAUUAUCACGCGUGGCGCAC [Design 73] (Eterna round: R96, puzzle: Exclusion NG 1)
apparent KD of MS2 coat protein (input ligand: FMN 200 uM): 37.7 nM | apparent KD of MS2 coat protein [1]: 18.9 nM | apparent KD of MS2 coat protein (input ligand: none): 37.7 nM

GGACGGUUAGUUAGGAUAUGCUCUACCUCGGUAGAGCAGAAGGGACAUGAGGAUCACCCAUGUGAUAACUGUUC [Omei Ex4B B35] (Eterna round: R97, puzzle: Brourd's mod of Exclusion 4)
apparent KD of MS2 coat protein (input ligand: FMN 200 uM): 23.1 nM | apparent KD of MS2 coat protein (input ligand: none): 20.5 nM

GAUUAUGCGAGCUUUAGGGACAUGAGGAUCACCCAUGUUCGUCUUAUUAGUCUAAGUACACUGACAUACCUAAAUCU [JMF 61] (puzzle: Sensor v3, turn-off variant 1)
apparent KD of MS2 coat protein [3]: 13.3 nM | apparent KD of MS2 coat protein [2]: 14.2 nM | apparent KD of MS2 coat protein [4]: 12.4 nM

UAAGAUUACCGAGGAUAUGGUAGUUUCUAUUAACCAGAAGGCGGACUCAACAUGAGGAUCACCCAUGUAUAAAGGGUAUUAGAU [JR_ExcNG1_Sub041] (Eterna round: R96, puzzle: Exclusion NG 1)
apparent KD of MS2 coat protein (input ligand: FMN 200 uM): 91.7 nM | apparent KD of MS2 coat protein [1]: 56.4 nM | apparent KD of MS2 coat protein (input ligand: none): 116 nM

GUGAGCAGACGGAGAUCCAACAUGAGGAUCACCCAUGUCUCACUAGCUUUUUGCUCGUCUUAUCCUCCUCUGUUCAC [Elimod 23 - Jieux - Sensor, turn-off variant 1] (Eterna round: R97, puzzle: Sensor, turn-off variant 1)
apparent KD of MS2 coat protein (input ligand: FMN 200 uM): 16 nM | apparent KD of MS2 coat protein (input ligand: none): 16.2 nM

CCCGAUGGAUAGGAUAUCCGGCAAGUAUGCUAUGGAGAAGGGUUCACAUGAGGAUCACCCAUGUGGGUUAAACG [Eternabot (L1) Solution 74] (Eterna round: R97, puzzle: Exclusion 6)
apparent KD of MS2 coat protein (input ligand: FMN 200 uM): 22 nM | apparent KD of MS2 coat protein (input ligand: none): 19.3 nM

AACAAACAUGAGGAUCACCCAUGUCAGGAUAUGGCGGCUAGUGUGCCACCGUACACUACCAGAAGGGACUGGGU [Diedtiis] (puzzle: Exclusion 1)
apparent KD of MS2 coat protein [2]: 111 nM

AAAUAAGAAGGAUAUACAAAUUAAAAGGUCCUUAAGGCAAGACAUGAGGAUCACCCAUGUAGAAGGUCUGAAAA [Teati] (puzzle: Exclusion 2)
apparent KD of MS2 coat protein [3]: 39.5 nM | apparent KD of MS2 coat protein [2]: 23 nM | apparent KD of MS2 coat protein [4]: 22.6 nM

GAUACACAUGAGGAUCACCCAUGUGAGGAUAUGCGUACGUUGUCCGUAGGCGACGUGCGCAGAAGGCGCAAAGG [Mat - Mod of JL D97] (puzzle: Exclusion 1)
apparent KD of MS2 coat protein [3]: 85.1 nM | apparent KD of MS2 coat protein [2]: 41.3 nM | apparent KD of MS2 coat protein [4]: 86 nM

CGGAGUUAGGAGGAUAUGACGAACGCACGUCGUUCAGAAGGCCUAACAUGAGGAUCACCCAUGUGCUUAACACG [Eternabot (L2) Solution 59] (Eterna round: R97, puzzle: Exclusion 6)
apparent KD of MS2 coat protein (input ligand: FMN 200 uM): 48.7 nM | apparent KD of MS2 coat protein (input ligand: none): 35.7 nM

CAGACACAUGAGGAUCACCCAUGUGAGGAUAUGCGUACGUUGUCCGUAGGCGACGUGCGCAGAAGGCGCAAAGG [JL-ex1-3.10 Eli mod] (puzzle: Exclusion 1)
apparent KD of MS2 coat protein [3]: 65.7 nM | apparent KD of MS2 coat protein [2]: 67 nM | apparent KD of MS2 coat protein [4]: 79.4 nM

AAGAAGAUAGGAUAUACGAGGAGAGGAGAGAGAAGGUGAGGACAUGAGGAUCACCCAUGUAGAAGGAUCAGGAA [JR_Exclu2_Sub064] (puzzle: Exclusion 2)
apparent KD of MS2 coat protein [3]: 81.3 nM | apparent KD of MS2 coat protein [2]: 88 nM | apparent KD of MS2 coat protein [4]: 89.9 nM

AUGGGUCCUCUCGGAGCGACAUGAGGAUCACCCAUGUGUGUUGAGGAUAUCCACUGCUAAGGACGGGAGAAGGCAGUGUACUGU [Ex NG3 #85] (Eterna round: R96, puzzle: Exclusion NG 3)
apparent KD of MS2 coat protein (input ligand: FMN 200 uM): 29.8 nM | apparent KD of MS2 coat protein [1]: 23.5 nM | apparent KD of MS2 coat protein (input ligand: none): 32.9 nM

ACGCGAUAUGGCGUAACGCGACAUGAGGAUCACCCAUGUAACGAGGAUAUGAUCUCGAGAGAGGGUCAGAAGGCGUUACAAUAU [Eternabot solution 23] (Eterna round: R96, puzzle: Exclusion NG 3)
apparent KD of MS2 coat protein (input ligand: FMN 200 uM): 130 nM | apparent KD of MS2 coat protein [1]: 70.7 nM | apparent KD of MS2 coat protein (input ligand: none): 74.3 nM

ACAUGAGGAUCACCCAUGUCUGGCUGGUCUGCUCCGGUUGUUGAGGAUAUAGUUCGGUGUUCGCGCUAGAAGGUGAGGGCUGGC [Aenatbe mod 38] (Eterna round: R96, puzzle: Exclusion NG 3)
apparent KD of MS2 coat protein (input ligand: FMN 200 uM): 34.4 nM | apparent KD of MS2 coat protein [1]: 32.1 nM | apparent KD of MS2 coat protein (input ligand: none): 39 nM

GCUGGUCGAGGAUAUACAUGAGGAUCACCCAUGUAGAUCAACCAGCUUCGGCUGGAAUGUAGAAGGCGACCAGC [E3/5-A4] (Eterna round: R97, puzzle: Exclusion 3)
apparent KD of MS2 coat protein (input ligand: FMN 200 uM): 117 nM | apparent KD of MS2 coat protein (input ligand: none): 19.5 nM

CCACGACAUGAGGAUCACCCAUGUGAGGAUAUGACCUGAAAAGCGUGAGCAGUUUGUAUCAGAAGGCGCGUAGG [salish99_ex1_r4_067] (Eterna round: R97, puzzle: Exclusion 1)
apparent KD of MS2 coat protein (input ligand: FMN 200 uM): 35.9 nM | apparent KD of MS2 coat protein (input ligand: none): 44.2 nM

UUAAUUAAUUUAAUAUAAGAUCACAUGAGGAUCACCCAUGUAUAGGAUAUCAGCUCGUGUAGAGCUGAGAAGGAUACAUAAUAU [ExNG3/2-B3] (Eterna round: R96, puzzle: Exclusion NG 3)
apparent KD of MS2 coat protein (input ligand: FMN 200 uM): 105 nM | apparent KD of MS2 coat protein [1]: 161 nM | apparent KD of MS2 coat protein (input ligand: none): 155 nM

UCAUGUCCAGAGGAUAUGUAGCGGGAGACCGCAACAGAAGGCUGGACAUGAGGAUCACCCAUGUGCGCCUUCAA [jl-ex3-4.28 ViennaUCT mod] (Eterna round: R97, puzzle: Exclusion 6)
apparent KD of MS2 coat protein (input ligand: FMN 200 uM): 43 nM | apparent KD of MS2 coat protein (input ligand: none): 352 nM

UACAUGAGGAUCACCCAUGUUUUGUCGUGUAUGGUAUUUAUCUAGGAUAUCAAGUUAUUUAGUUAUGAGAAGGAGAAUAUUAAU [JMF's solution 35] (Eterna round: R96, puzzle: Exclusion NG 3)
apparent KD of MS2 coat protein (input ligand: FMN 200 uM): 31.5 nM | apparent KD of MS2 coat protein [1]: 31.6 nM | apparent KD of MS2 coat protein (input ligand: none): 40.4 nM

GGAUCAUGAGGAUAUCGAGGUUAGUACAUGAGGAUCACCCAUGUUAUCCAGGUCUCGUUUCGAGAAGGCAUGAUCC [LRO-Ex5-10] (puzzle: Exclusion 5)
apparent KD of MS2 coat protein [2]: 21.2 nM

UGCUAGUCAGGAUAUACGAACAUGUCAAAAGACGUGAAGGGACAUGAGGAUCACCCAUGUAGAAGGGACUAGCC [salish99_ex2_r3_008] (puzzle: Exclusion 2)
apparent KD of MS2 coat protein [2]: 25.5 nM

UUAGUAUUGCAAGGAUAUGUUUAUGAUAUUUUUCCUCUUACAUGAGGAUCACCCAUGUUUAACUUACAGAAGGUGCUAUGAUUU [JR_ExcNG2_Sub031] (Eterna round: R96, puzzle: Exclusion NG 2)
apparent KD of MS2 coat protein [1]: 342 nM

GAGUGGCAAGGAUAUACAGUGGAGAGGAUGGCAAGAGGUGGACAUGAGGAUCACCCAUGUAGAAGGUGCAGAGA [JR_Exclu2_Sub024] (puzzle: Exclusion 2)
apparent KD of MS2 coat protein [2]: 150 nM

CAUGAUUGGCGAGGAUAUUGAUCUAGUUGGCGACGAGAAGGCGCCUGUCACAUGAGGAUCACCCAUGUGAAUCUGGUGGAUGAG [Ex NG1 #88] (Eterna round: R96, puzzle: Exclusion NG 1)
apparent KD of MS2 coat protein (input ligand: FMN 200 uM): 23 nM | apparent KD of MS2 coat protein [1]: 18.4 nM | apparent KD of MS2 coat protein (input ligand: none): 23.5 nM

AGCGCCAUGCUCGUCUUACACAUGAGGAUCACCCAUGUUGGGUCUCAGAUGCGGUAAUAGCCCGUUGAAUCUAGUGG [Eternabot (L1) Solution 38] (Eterna round: R97, puzzle: Sensor, turn-off variant 1)
apparent KD of MS2 coat protein (input ligand: FMN 200 uM): 182 nM | apparent KD of MS2 coat protein (input ligand: none): 191 nM

UCCCGAUACUAGGAUAUGAGUUCACAGGAACGAUCAGAAGGAGUUACAUGAGGAUCACCCAUGUGGGUGUAUUG [Eternabot (L1) Solution 37] (Eterna round: R97, puzzle: Exclusion 6)
apparent KD of MS2 coat protein (input ligand: FMN 200 uM): 120 nM | apparent KD of MS2 coat protein (input ligand: none): 237 nM

AAAACUGCCCAUGACCGCAAGCUUUUUGCUUGUCUUACCACAUGAGGAUCACCCAUGUGUCAUGGGCUCCUUAUAAA [Tisoanor] (puzzle: Sensor v3, turn-off variant 2)
apparent KD of MS2 coat protein [3]: 12.7 nM | apparent KD of MS2 coat protein [2]: 10.8 nM | apparent KD of MS2 coat protein [4]: 11.3 nM
